In test [1] the test system is Wildtype, non-transformed Arabidopsis thaliana c.v. Columbia. The test can be described thus: Glyphosate response of non-transformed control Arabidopsis. The format is in vivo. As to conditions: WT (non-transformed control), 14 days after application. As to the method:
(§1) The Arabidopsis T1 transformants (from transformation with pDAB114286 or pDAB114287) were first selected from the background of untransformed seed using a glufosinate selection scheme. Three flats or 50,000 seed were analyzed for each T1 construct. The selected T1 plants were molecularly characterized (as described above) and events with a range of copy number were sprayed with various rates of commercial glyphosate.
(§2) Transgenic T1 Arabidopsis plants containing the dgt-28 transgene were sprayed with differing rates of glyphosate. Elevated rates were applied in this study to determine the relative levels of resistance (420, 840, 1,680 or 3,360 g ae/ha). The typical 1× field usage rate of glyphosate is 1120 g ae/ha. The response of these plants is presented in terms of % visual injury 2 weeks after treatment (WAT). The T1 Arabidopsis plants that were used in this study were of variable copy number for the dgt-28 transgene. The low copy dgt-28 T1 Arabidopsis plants were self-pollinated and used to produce T2 plants.
(§3) An arithmetic mean and standard deviation is presented for each construct used for Arabidopsis transformation. The range in individual response is also indicated in the last column for each rate and transformation. Wildtype, non-transformed Arabidopsis thaliana c.v. Columbia served as a glyphosate sensitive control.

The subject of test [2] is dgt-28 transformed T1 Arabidopsis. Briefly: Glyphosate tolerance of dgt-28 transformed T1 Arabidopsis. As to conditions: 14 days after application. It is filed as in vivo, Arabidopsis thaliana. As to the method:
as §1, §2, §3

Setting [3] is: 420 g ae/ha glyphosate postemergence.
[4] abbreviates: 840 g ae/ha glyphosate postemergence.
Setting [5] is: 1680 g ae/ha glyphosate postemergence.
Setting [6] is: 3360 g ae/ha glyphosate postemergence.

`O=C(O)CNCP(=O)(O)O` [glyphosate]: in test [1] (420 g ae/ha postemergence), the “% Injury Analysis Ave” value is 100.0%, the “% Injury Analysis Range (%)” value is 100%, the “% Injury Range (No. Replicates) 20-40%” value is recorded as 0 and the “% Injury Range (No. Replicates) <20%” value was determined as 0. The “% Injury Range (No. Replicates) >40%” value in test [1] (420 g ae/ha postemergence) is listed as 4. In addition, in test [1] (840 g ae/ha postemergence), the “% Injury Analysis Ave” value was determined as 100.0%, the “% Injury Analysis Range (%)” value was found to be 100%, the “% Injury Range (No. Replicates) 20-40%” value stood at 0 and the “% Injury Range (No. Replicates) <20%” value is recorded as 0. Moreover, in test [1] (840 g ae/ha postemergence), the “% Injury Range (No. Replicates) >40%” value is on record as 4. In test [1] (1680 g ae/ha postemergence), the “% Injury Analysis Ave” value was determined as 100.0%, the “% Injury Analysis Range (%)” value is 100%, the “% Injury Range (No. Replicates) 20-40%” value was 0 and the “% Injury Range (No. Replicates) <20%” value came out at 0. Moreover, the “% Injury Range (No. Replicates) >40%” value in test [1] (1680 g ae/ha postemergence) is 4. Further, in test [1] (3360 g ae/ha postemergence), the “% Injury Analysis Ave” value is recorded as 100.0%, the “% Injury Analysis Range (%)” value turned out to be 100%, the “% Injury Range (No. Replicates) 20-40%” value is recorded as 0 and the “% Injury Range (No. Replicates) <20%” value was 0. In addition, the “% Injury Range (No. Replicates) >40%” value in test [1] (3360 g ae/ha postemergence) turned out to be 4.

B1: TraP27::dgt-28: TraP27-dgt28 fusion gene (SEQ ID NO:28) in construct pDAB114287, expressed in T1 Arabidopsis (protein)
chain: MATFTRVCHTARKSFVSLSNSQANSPVSVRFLSLPMPAARPAVKSGVRLWGCRLSFKVSASARGMPALSLPGSKSITARALFLAAAADGVTTLVRPLRSDDTEGFAEGLVRLGYRVGRTPDTWQVDGRPQGPAVAEADVYCRDGATTARFLPTLAAAGHGTYRFDASPQMRRRPLLPLSRALRDLGVDLRHEEAEGHHPLTVRAAGVEGGEVTLDAGQSSQYLTALLLLGPLTRQGLRIRVTDLVSAPYVEITLAMMRAFGVEVAREGDVFVVPPGGYRATTYAIEPDASTASYFFAAAALTPGAEVTVPGLGTGALQGDLGFVDVLRRMGAEVSVGADATTVRGTGELRGLTANMRDISDTMPTLAAIAPFASAPVRIEDVANTRVKECDRLEACAENLRRLGVRVATGPDWIEIHPGPATGAQVTSYGDHRIVMSFAVTGLRVPGISFDDPGCVRKTFPGFHEAFAELRRGIGS
modifications: Trap27 DGT28 fusion coding sequence
Regarding B1, in test [2] (setting [3]), the “% Injury Analysis Ave” value was 19.0%, the “% Injury Analysis Range (%)” value is reported as 10-30%, the “% Injury Range (No. Replicates) 20-40%” value is 1 and the “% Injury Range (No. Replicates) <20%” value was 3. In test [2] (setting [3]), the “% Injury Range (No. Replicates) >40%” value is recorded as 0. In addition, in test [2] (setting [4]), the “% Injury Analysis Ave” value turned out to be 15.8%, the “% Injury Analysis Range (%)” value was 10-20%, the “% Injury Range (No. Replicates) 20-40%” value worked out at 1 and the “% Injury Range (No. Replicates) <20%” value is 3. In test [2] (setting [4]), the “% Injury Range (No. Replicates) >40%” value worked out at 0. For the same molecule, in test [2] (setting [5]), the “% Injury Analysis Ave” value worked out at 18.8%, the “% Injury Analysis Range (%)” value is 15-20%, the “% Injury Range (No. Replicates) 20-40%” value turned out to be 3 and the “% Injury Range (No. Replicates) <20%” value was 1. Further, the “% Injury Range (No. Replicates) >40%” value in test [2] (setting [5]) is recorded as 0. In test [2] (setting [6]), the “% Injury Analysis Ave” value is 25.0%, the “% Injury Analysis Range (%)” value stood at 25%, the “% Injury Range (No. Replicates) 20-40%” value was determined as 4 and the “% Injury Range (No. Replicates) <20%” value amounted to 0. Further, in test [2] (setting [6]), the “% Injury Range (No. Replicates) >40%” value was determined as 0.

B2: TraP26::dgt-28: TraP26-dgt28 fusion gene (SEQ ID NO:27) in construct pDAB114286, expressed in T1 Arabidopsis (protein)
chain: MAQVSMIPNAIQAPCSISLSKSQAGKSVRKVSLKPNQHAAWGLRRSGMRVGNPEVVVSASARGMPALSLPGSKSITARALFLAAAADGVTTLVRPLRSDDTEGFAEGLVRLGYRVGRTPDTWQVDGRPQGPAVAEADVYCRDGATTARFLPTLAAAGHGTYRFDASPQMRRRPLLPLSRALRDLGVDLRHEEAEGHHPLTVRAAGVEGGEVTLDAGQSSQYLTALLLLGPLTRQGLRIRVTDLVSAPYVEITLAMMRAFGVEVAREGDVFVVPPGGYRATTYAIEPDASTASYFFAAAALTPGAEVTVPGLGTGALQGDLGFVDVLRRMGAEVSVGADATTVRGTGELRGLTANMRDISDTMPTLAAIAPFASAPVRIEDVANTRVKECDRLEACAENLRRLGVRVATGPDWIEIHPGPATGAQVTSYGDHRIVMSFAVTGLRVPGISFDDPGCVRKTFPGFHEAFAELRRGIGS
modifications: Trap26 DGT28 fusion coding sequence
Regarding B2, in test [2] (setting [3]), the “% Injury Analysis Ave” value was determined as 0.0%, the “% Injury Analysis Range (%)” value is reported as 0%, the “% Injury Range (No. Replicates) 20-40%” value was 0 and the “% Injury Range (No. Replicates) <20%” value is reported as 4. The “% Injury Range (No. Replicates) >40%” value in test [2] (setting [3]) was 0. Besides, in test [2] (setting [4]), the “% Injury Analysis Ave” value is listed as 0.0%, the “% Injury Analysis Range (%)” value is reported as 0%, the “% Injury Range (No. Replicates) 20-40%” value amounted to 0 and the “% Injury Range (No. Replicates) <20%” value worked out at 4. The “% Injury Range (No. Replicates) >40%” value in test [2] (setting [4]) is 0. For the same molecule, in test [2] (setting [5]), the “% Injury Analysis Ave” value is given as 10.0%, the “% Injury Analysis Range (%)” value is recorded as 10%, the “% Injury Range (No. Replicates) 20-40%” value was found to be 0 and the “% Injury Range (No. Replicates) <20%” value is reported as 4. In addition, the “% Injury Range (No. Replicates) >40%” value in test [2] (setting [5]) is recorded as 0. Besides, in test [2] (setting [6]), the “% Injury Analysis Ave” value was determined as 16.3%, the “% Injury Analysis Range (%)” value is on record as 15-20%, the “% Injury Range (No. Replicates) 20-40%” value is listed as 1 and the “% Injury Range (No. Replicates) <20%” value turned out to be 3. For the same molecule, the “% Injury Range (No. Replicates) >40%” value in test [2] (setting [6]) amounted to 0.

These data come from patent publication US10253323B2, “Chloroplast transit peptides” (priority 2015, dated 2019).
